Assay results as given in patent US20250026852A1 (Chugai, published 2025).

What was measured:
[1] = target: T1, 20A11-G1m/VK2-28-k0MT; experiment: BLI (Octet), in the same way as in Example 3
T1 construct: IgG antibody-like molecule; VHH 20A11 in place of VH

[2] = target: T2, IL6R90-G1m/lamL (Homo sapiens (Human), UniProt P0DOY2 1-106); experiment: BLI (Octet HTX), molecule captured on Protein A biosensor, hsIL-6R as analyte, 30 C
T2 construct: IgG antibody-like molecule; VHH IL6R90 in place of VH
Description: (§1) The hsIL-6R binding evaluation of each molecule was conducted using Octet HTX (Pall ForteBio Corp.). Specifically, each molecule was allowed to bind to Biosensor/Protein A (ProA) (Pall ForteBio Corp., 18-5013), and hsIL-6R was allowed to act thereon, followed by binding evaluation at 30° C.

[3] = target: T3, IL6R90-G1m/VK2-28-k0MT; experiment: as above
T3 construct: IgG antibody-like molecule; VHH IL6R90 in place of VH
T3 sequence (light, as listed by the source, chain 2 of 2, other chains not shown): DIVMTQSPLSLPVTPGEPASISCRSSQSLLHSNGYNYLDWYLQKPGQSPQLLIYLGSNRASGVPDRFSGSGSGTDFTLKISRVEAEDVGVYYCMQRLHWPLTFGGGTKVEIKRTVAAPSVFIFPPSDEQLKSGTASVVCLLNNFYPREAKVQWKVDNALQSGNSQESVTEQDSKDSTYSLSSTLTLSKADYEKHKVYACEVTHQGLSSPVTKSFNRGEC
Description: as §1

[4] = target: T4, 20A11hu-G1m/VK2-28-k0MT (Homo sapiens (Human), UniProt P0DOX5 2-447 = IgG part); experiment: BLI (Octet), in the same way as in Example 3, 30 C or 25 C
T4 construct: IgG antibody-like molecule; VHH 20A11hu in place of VH
T4 sequence (P0DOX5 other isoform, or with tags, fused parts or gaps, chain 1 of 2): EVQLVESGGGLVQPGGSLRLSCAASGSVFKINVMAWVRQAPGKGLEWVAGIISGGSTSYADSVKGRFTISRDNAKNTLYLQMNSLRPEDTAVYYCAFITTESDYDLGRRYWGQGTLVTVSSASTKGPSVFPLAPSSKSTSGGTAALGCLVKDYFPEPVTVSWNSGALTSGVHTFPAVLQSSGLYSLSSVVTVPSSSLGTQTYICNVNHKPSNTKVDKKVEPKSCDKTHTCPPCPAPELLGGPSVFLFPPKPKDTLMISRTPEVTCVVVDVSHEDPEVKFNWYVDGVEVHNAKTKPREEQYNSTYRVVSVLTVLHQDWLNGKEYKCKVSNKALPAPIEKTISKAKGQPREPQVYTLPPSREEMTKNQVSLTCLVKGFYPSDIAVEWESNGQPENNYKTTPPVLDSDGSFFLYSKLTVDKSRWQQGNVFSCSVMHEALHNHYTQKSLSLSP
T4 sequence (light, as listed by the source, chain 2 of 2): as the sequence (light, as listed by the source, chain 2 of 2, other chains not shown) above
Description: Next, the IL-6R binding evaluation of VHH released by protease treatment was conducted at 30° C. or 25° C. in the same way as in Example 3.

[5] = target: T5, human CD3ed-Fc (human); experiment: phage display: ELISA / panning of the immunized-alpaca VHH library (Example 5-1 or 5-2)
T5 construct: Biotinylated in culture by BirA; also called biotin-labeled protein containing human CD3 epsilon and human CD3 delta linked to a human antibody constant region; CD3 heterodimer fused with the antibody constant region
T5 chain 1: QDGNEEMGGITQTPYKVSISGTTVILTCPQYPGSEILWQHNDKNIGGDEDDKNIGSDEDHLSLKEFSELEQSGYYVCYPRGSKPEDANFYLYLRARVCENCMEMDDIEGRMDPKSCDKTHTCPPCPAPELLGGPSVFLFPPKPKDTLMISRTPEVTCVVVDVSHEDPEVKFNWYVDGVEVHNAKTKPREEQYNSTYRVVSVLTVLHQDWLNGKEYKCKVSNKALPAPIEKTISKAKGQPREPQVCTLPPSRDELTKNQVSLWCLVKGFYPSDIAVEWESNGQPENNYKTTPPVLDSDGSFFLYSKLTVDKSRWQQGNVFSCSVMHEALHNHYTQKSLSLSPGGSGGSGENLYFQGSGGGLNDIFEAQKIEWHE
T5 chain 2: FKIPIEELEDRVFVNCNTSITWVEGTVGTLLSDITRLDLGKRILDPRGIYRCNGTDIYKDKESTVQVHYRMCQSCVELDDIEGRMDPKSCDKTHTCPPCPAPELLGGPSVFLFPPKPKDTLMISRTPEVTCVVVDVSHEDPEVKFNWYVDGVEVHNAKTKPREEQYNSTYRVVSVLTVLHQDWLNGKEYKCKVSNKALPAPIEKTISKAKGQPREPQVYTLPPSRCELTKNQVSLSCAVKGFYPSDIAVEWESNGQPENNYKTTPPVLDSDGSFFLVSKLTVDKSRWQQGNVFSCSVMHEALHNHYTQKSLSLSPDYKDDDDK

[6] = target: T5, human CD3ed-Fc; experiment: BLI (Octet RED), human CD3ed-Fc on the sensor, protease-treated molecule as analyte
Description: The protease concentration was set to 25 nM, and Octet RED (Pall ForteBio Corp.) was used in the assay.
Next, the CD3 binding evaluation of VHH released by protease treatment was conducted in the same way as in Example 3.

T1 sequence (heavy, as listed by the source, chain 1 of 2): as the sequence (P0DOX5 other isoform, or with tags, fused parts or gaps, chain 1 of 2) above, with V37Y, L45R, W47L counted along it
T1 sequence (light, as listed by the source, chain 2 of 2): as the sequence (light, as listed by the source, chain 2 of 2, other chains not shown) above

Binder	binding result [5]	binding result [6]	further results
soluble human IL-6R (receptor, also called hsIL-6R; recombinant human IL-6R) LAPRRCPAQEVARGVLTSLPGDSVTLTCPGVEPEDNATVHWVLRKPAAGSHPSRWAGMGRRLLLRSVQLHDSGNYSCYRAGRPAGTVHLLVDVPPEEPQLSCFRKSPLSNVVCEWGPRSTPSLTTKAVLLVRKFQNSPAEDFQEPCQYSQESQKFSCQLAVPEGDSSFYIVSMCVASSVGSKFSKTQTFQGCGILQPDPPANITVTAVARNPRWLSVTWQDPHSWNSSFYRLRFELRYRAERSKTFTTWMVKDLQHHCVIHDAWSGLRHVVQLRAQEEFGQGEWSEWSPEAMGTPWTESRSPPAENEVSTPMQALTTNKDDDNILFRDSANATSLPVQ	–	–	binding result [1]: binds; binding result [2]: binds; binding result [3]: no binding; binding result [4]: no binding
bC3edL1R1N160H01 (VHH) VHH: QVQLVESGGGLVQPGGSLRLSCAASGFTFNHCWMYWVRQAPGKGLEWVSVINTDGGSAYYADSVKGRFTISRDNAKNTLYLQMNSLKSEDTAVYYCARDWAPLVDYYYGMDYWGKGTLVTVSG	binds	–	–
bC3edL1R1N161H01 (VHH) VHH: QVQLVESGGGLVQPGGSLRLSCAASGFPFDNYVMSWVRQAPGKGLEWISAISWNGGSTYYAESMKGRFTISRDNAKSTLYLQMNSLKSEDTAVYYCAKEPRVYYSGSPDYWGQGTQVTVSG	binds	–	–
bC3edL1R1N164H01 (VHH) VHH: QVQLVESGGGLVQPGGSLRLSCAASGFTFDVYGMSWVRHSPGKGLEWVSTINWNGGSTYYAESMKGRFTISRDNAKNTVYLQMNSLKPEDTAVYYCAKFAPWDGDMEWGQGTQVTVSG	binds	–	–
bC3edL1R1N160H01-G1mISHI01/VK1-39-k0MT after protease (MT-SP1) treatment (VHH, also called released VHH; not shown: residues of the protease cleavage site left at the C terminus) VHH: QVQLVESGGGLVQPGGSLRLSCAASGFTFNHCWMYWVRQAPGKGLEWVSVINTDGGSAYYADSVKGRFTISRDNAKNTLYLQMNSLKSEDTAVYYCARDWAPLVDYYYGMDYWGKGTLVTVSG	–	binds	–
bC3edL1R1N161H01-G1mISHI01/VK1-39-k0MT after protease (MT-SP1) treatment (VHH, also called released VHH; not shown: residues of the protease cleavage site left at the C terminus) VHH: QVQLVESGGGLVQPGGSLRLSCAASGFPFDNYVMSWVRQAPGKGLEWISAISWNGGSTYYAESMKGRFTISRDNAKSTLYLQMNSLKSEDTAVYYCAKEPRVYYSGSPDYWGQGTQVTVSG	–	binds	–
bC3edL1R1N164H01-G1mISHI01/VK1-39-k0MT after protease (MT-SP1) treatment (VHH, also called released VHH; not shown: residues of the protease cleavage site left at the C terminus) VHH: QVQLVESGGGLVQPGGSLRLSCAASGFTFDVYGMSWVRHSPGKGLEWVSTINWNGGSTYYAESMKGRFTISRDNAKNTVYLQMNSLKPEDTAVYYCAKFAPWDGDMEWGQGTQVTVSG	–	binds	–
